Experiment [1] concerns the target T1, GST-tagged peptide H31 (H10 with arginine for glutamine at position 235) (human, UniProt P01861 221-325 = IgG part).
T1 construct: not shown: GST tag (glutathione S-transferase) linked to the N terminal, expressed from vector pGEX-6P-1
T1 chain: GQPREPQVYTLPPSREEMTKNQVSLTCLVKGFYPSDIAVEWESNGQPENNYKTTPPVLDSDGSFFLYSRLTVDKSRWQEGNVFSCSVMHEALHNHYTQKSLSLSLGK
Put plainly: Western blot: E. coli lysate with the GST-tagged peptide, SDS-PAGE, PVDF membrane, POD-labelled antibody diluted 1000-fold, ECL.

In experiment [2] the target is T2, GST-tagged peptide H37 (H10 with R289K and L325P) (human, UniProt P01861 221-324 = IgG part).
T2 construct: not shown: N-terminal GST tag (from vector pGEX-6P-1) and any vector linker
T2 chain: T1 chain with R15Q, R69K, L105P
The experiment is described as above.

The target of experiment [3] is T3, GST-tagged peptide H36 (positions 221 to 327 with the human IgG4 specific sequence replaced by the … (human, UniProt P0DOX5 343-449 = IgG part)).
T3 construct: not shown: GST tag (glutathione S-transferase) linked to the N terminal, expressed from vector pGEX-6P-1
Described as above.

Experiment [4] deals with T4, GST-tagged peptide H7 (positions 56 to 327 of the human IgG4 heavy chain constant region) (human, UniProt P01861 56-325 = IgG part).
T4 construct: E. coli lysate on Western blot; not shown: GST tag (glutathione S-transferase) linked to the N terminal, expressed from vector pGEX-6P-1
The description is as above.

The target in experiment [5] is T5, GST-tagged peptide H6 (positions 1 to 55 of the human IgG4 heavy chain constant region) (human, UniProt P01859 1-55 = IgG part).
T5 construct: E. coli lysate on Western blot; not shown: GST tag (glutathione S-transferase) linked to the N terminal, expressed from vector pGEX-6P-1
The description is as above.

Experiment [6] deals with T6, GST-tagged peptide H9 (positions 166 to 327 of the human IgG4 heavy chain constant region) (human, UniProt P01861 166-325 = IgG part).
T6 construct: E. coli lysate on Western blot; not shown: GST tag (glutathione S-transferase) linked to the N terminal, expressed from vector pGEX-6P-1
Described as above.

Experiment [7] has as its target Myeloma human IgA1 (Abcam) (human, UniProt P01876-1 1-353). Put plainly: indirect ELISA, antigen coated 1 µg/mL, antibody 1 µg/mL; no-antigen well 0.042. As for the experimental part:
(§1) Myeloma human IgA1 (Abcam), Myeloma human IgA2 (Abcam), Myeloma human IgD (Abcam), Myeloma human IgE (Abcam), Myeloma human IgM (Abcam), Myeloma human IgG1 (EMD Millipore), Myeloma human IgG2 (EMD Millipore), Myeloma human IgG3 (Sigma-Aldrich Co. LLC), and Myeloma human IgG4 (EMD Millipore) were adjusted to 1 μg/mL with PBS(−). The adjusted samples were added to a 96-well plate (Thermo Fisher Scientific) by 100 μL, respectively. The plate was shaken by a shaker under the condition of 700 rpm and 25.0° C. for 1 hour. The solutions were discarded, the plate was cleaned with 300 μL of PBST 3 times, 100 μL of a blocking buffer solution was added to each well, and then the plate was stored at 4° C. one night or more. Similarly, after cleaning with PBST, the MaI4-08 and MaI4-09-produced antibodies were adjusted to 1 μg/mL with an antibody dilute buffer solution and then added to each well by 100 μL, and the plate was shaken under the same condition as mentioned above. Similarly, after cleaning with PBST, a HRP labeled anti-mouse IgG antibody (Abcam) diluted 4000-fold with an antibody dilute buffer solution was added to each well by 100 μL, and the plate was shaken under the same condition as mentioned above. Similarly, after cleaning with PBST, 100 μL of SureBlue (KPL) was added. 5 or 3 minutes later, 100 μL of 0.5 mol/L sulfuric acid (Wako Pure Chemical Corporation) was added to each of MaI4-08 and MaI4-09. Absorbance at a wavelength of 450 nm was measured with a microplate reader (BIO-RAD Laboratories, Inc.). As a result, a strong signal was given to Myeloma human IgG4 as compared to the other samples (Tables 2 and 3, and FIGS. 2 and 3).

The target of experiment [8] is Myeloma human IgM (Abcam) (human, UniProt P01871-1 1-453). The experiment is described as above. As to the method:
as §1

Experiment [9] addresses T7, Myeloma human IgG4 (EMD Millipore) (human).
T7 construct: Bought myeloma protein
Described as above. As to the method: as §1

The record followed here is patent US20210140973A1 (NITTO BOSEKI, published 2021).

Substitutions are numbered along the chain they refer to.

T6 sequence (P01861 other isoform, or with tags, fused parts or gaps): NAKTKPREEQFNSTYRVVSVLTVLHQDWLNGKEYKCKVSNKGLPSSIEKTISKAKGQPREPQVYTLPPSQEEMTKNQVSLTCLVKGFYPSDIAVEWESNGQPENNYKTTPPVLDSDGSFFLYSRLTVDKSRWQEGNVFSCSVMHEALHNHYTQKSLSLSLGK
Sequence of Myeloma human IgA1 (Abcam) (P01876 other isoform, or with tags, fused parts or gaps): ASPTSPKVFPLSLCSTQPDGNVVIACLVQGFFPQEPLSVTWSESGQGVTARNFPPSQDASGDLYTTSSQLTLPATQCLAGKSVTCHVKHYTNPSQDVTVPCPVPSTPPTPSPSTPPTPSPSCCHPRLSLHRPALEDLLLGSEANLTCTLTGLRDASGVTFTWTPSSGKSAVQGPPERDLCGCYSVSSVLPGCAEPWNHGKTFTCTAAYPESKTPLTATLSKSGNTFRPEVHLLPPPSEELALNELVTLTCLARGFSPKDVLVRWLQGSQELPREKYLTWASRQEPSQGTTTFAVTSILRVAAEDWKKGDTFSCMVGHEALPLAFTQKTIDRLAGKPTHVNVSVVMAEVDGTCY
T7 sequence (constant, as listed by the source limits assumed): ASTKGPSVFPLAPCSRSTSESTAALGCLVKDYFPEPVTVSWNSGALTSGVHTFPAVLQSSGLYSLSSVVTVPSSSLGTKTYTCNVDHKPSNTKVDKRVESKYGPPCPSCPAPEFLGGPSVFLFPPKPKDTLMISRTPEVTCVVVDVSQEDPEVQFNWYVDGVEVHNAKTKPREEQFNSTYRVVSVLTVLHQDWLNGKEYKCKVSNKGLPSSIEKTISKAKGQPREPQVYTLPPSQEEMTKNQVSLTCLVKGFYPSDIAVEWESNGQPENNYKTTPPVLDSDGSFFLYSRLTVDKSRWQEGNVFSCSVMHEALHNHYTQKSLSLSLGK
T5 sequence (P01859 1-55): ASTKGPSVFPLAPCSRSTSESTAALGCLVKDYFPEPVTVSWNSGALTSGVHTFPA
Sequence of Myeloma human IgM (Abcam) (P01871 other isoform, or with tags, fused parts or gaps): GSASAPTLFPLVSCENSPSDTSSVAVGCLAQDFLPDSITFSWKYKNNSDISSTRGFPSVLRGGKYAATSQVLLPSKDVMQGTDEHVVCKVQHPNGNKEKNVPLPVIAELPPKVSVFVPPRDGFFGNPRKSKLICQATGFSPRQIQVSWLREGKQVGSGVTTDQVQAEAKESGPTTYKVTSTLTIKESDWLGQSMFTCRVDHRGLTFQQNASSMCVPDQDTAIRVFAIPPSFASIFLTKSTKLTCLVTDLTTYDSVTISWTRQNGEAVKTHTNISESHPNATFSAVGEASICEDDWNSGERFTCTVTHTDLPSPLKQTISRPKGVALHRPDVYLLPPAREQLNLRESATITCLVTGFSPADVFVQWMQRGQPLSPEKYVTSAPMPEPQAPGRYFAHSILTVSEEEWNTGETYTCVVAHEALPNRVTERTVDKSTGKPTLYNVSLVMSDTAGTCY

B1: MaI4-08-produced antibody (antibody, IgG1, V domains shown)
VH: EVQLQQSGPELVKPGTSVKMSCKASGYIFTSYILHWVKQKPGQGLEWIAYINPYNDGTKYKEKFKGKGTLTSDKSSSTAYMELSSLTSEDSAVYYCARSGGGYGNYAWFAYWGPGTLVTVST
VL: DIQMTQSPSSLSASLGERVSLTCRASQDIGSSLNWLQQEPDGTIKRLIYATSSLDSGVPKRFSGSRSGSDYSLTISSLESEDFVDYYCLQYASYPPTFGAGTKLELK
notes: Purified on protein G from hybridoma culture supernatant; POD-labelled for the Western blots
In the case of B1, the binding result in experiment [1] is on record as “binds”; in experiment [2], “binds”; in [3] it was “no binding”; in [4], “binds”; in [5] it was “no binding”; in experiment [6], “binds”. Further, the “absorbance at 450 nm” value in [7] was found to be 0.043; in experiment [8], 0.042; in experiment [9], 2.04.
